Test [1] deals with Desmoglein 2 (DSG2) on cells (human) (UniProt Q14126). Nature of the test: cell-based or functional assay.
Test [2] shares this target. Kind of test: competition: attachment of 3H-labelled Ad3 virus (competitor) to HeLa cells after pre-incubation with dimeric knob; scintillation counting.
Test [3] concerns the target T1, soluble CD46 (UniProt P15529 35-343, limits assumed).
T1 construct: also called sCD46
T1 sequence (looked up): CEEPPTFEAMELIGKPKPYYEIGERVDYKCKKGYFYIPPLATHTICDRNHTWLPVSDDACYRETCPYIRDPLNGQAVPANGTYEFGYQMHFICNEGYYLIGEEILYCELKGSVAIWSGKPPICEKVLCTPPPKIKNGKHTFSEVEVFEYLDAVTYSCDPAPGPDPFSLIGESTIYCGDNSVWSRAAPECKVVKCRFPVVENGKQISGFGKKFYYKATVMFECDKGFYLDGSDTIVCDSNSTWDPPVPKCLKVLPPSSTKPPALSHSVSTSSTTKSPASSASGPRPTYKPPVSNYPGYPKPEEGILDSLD
Kind of test: Western blot probed with soluble CD46 and anti-CD46 mAb. A general note: A western blot detects proteins with antibodies after separation by electrophoresis.

The target in test [4] is T2, Desmoglein 2 (DSG2) on cells (human, UniProt Q14126 50-1118).
T2 sequence (looked up): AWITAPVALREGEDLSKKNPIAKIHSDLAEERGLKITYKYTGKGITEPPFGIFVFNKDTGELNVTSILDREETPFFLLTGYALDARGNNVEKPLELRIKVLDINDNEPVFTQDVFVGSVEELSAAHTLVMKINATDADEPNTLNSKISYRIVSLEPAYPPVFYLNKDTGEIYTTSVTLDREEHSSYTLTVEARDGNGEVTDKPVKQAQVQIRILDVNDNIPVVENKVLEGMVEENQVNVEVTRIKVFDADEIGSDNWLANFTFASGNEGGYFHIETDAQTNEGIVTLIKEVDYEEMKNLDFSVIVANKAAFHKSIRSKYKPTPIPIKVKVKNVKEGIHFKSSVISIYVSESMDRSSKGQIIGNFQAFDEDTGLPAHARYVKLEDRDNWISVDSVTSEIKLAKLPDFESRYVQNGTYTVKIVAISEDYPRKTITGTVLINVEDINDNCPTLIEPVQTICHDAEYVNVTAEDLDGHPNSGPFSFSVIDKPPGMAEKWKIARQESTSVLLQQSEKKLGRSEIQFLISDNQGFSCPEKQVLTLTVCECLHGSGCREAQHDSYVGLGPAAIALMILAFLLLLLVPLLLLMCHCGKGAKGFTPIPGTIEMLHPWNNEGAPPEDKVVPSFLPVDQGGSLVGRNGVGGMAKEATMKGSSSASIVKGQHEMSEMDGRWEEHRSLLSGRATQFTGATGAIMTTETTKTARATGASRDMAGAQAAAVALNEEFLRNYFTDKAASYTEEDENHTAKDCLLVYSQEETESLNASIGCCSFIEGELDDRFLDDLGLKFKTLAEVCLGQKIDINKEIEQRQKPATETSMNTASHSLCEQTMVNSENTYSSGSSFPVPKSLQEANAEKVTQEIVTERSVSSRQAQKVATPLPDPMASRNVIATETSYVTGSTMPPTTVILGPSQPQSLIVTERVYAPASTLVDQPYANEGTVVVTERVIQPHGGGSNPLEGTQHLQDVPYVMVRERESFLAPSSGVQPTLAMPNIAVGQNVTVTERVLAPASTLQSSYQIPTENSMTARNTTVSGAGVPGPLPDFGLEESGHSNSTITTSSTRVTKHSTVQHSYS
Kind of test: cell-based or functional assay.

The target in test [5] is T2, Desmoglein 2 (DSG2) on cells. Nature of the test: competition: attachment of 3H-labelled Ad3 virus (competitor) to HeLa cells after pre-incubation with dimeric knob; scintillation counting.
Test [6] addresses Recombinant human DSG2 protein (desmoglein 2), soluble (human) (UniProt Q14126). Nature of the test: Western blot of purified dimeric knob (trimer band) probed with soluble recombinant DSG2, anti-DSG2 mAb and anti-mouse IgG-HRP; bands quantified.

Consider “dimeric Ad3 fiber knob mutant N186D, D261N, L296R (ligand)”, for which the Inhibition of infection in the presence of dimeric knob (JO-1 = 100%) (% (JO-1 = 100%)) in test [1] amounted to 0. Also, the Inhibition of attachment in the presence of dimeric knob (JO-1 = 100%) (% (JO-1 = 100%)) in test [2] was 18.5.

B1: Ad3-S3/Kn (ligand, human adenovirus serotype 3, UniProt P04501 94-319, looked up)
chain: SINLPIGNGLQIEQNKLCSKLGNGLTFDSSNSIALKNNTLWTGPKPEANCIIEYGKQNPDSKLTLILVKNGGIVNGYVTLMGASDYVNTLFKNKNVSINVELYFDATGHILPDSSSLKTDLELKYKQTADFSARGFMPSTTAYPFVLPNAGTHNENYIFGQCYYKASDGALFPLEVTVMLNKRLPDSRTSYVMTFLWSLNAGLAPETTQATLITSPFTFSYIREDD
notes: domain: fiber knob with shaft motifs (S3)
Take B1: the binding result in test [3] is reported as “no binding”.

B2: dimeric Ad3 fiber knob mutant D261N (ligand)
chain: MKVSALKEKVSALKEKVSALKEKVSALKEKVSALKEGSGGGSGGGSGGGSNSIALKNNTLWTGPKPEANCIIEYGKQNPDSKLTLILVKNGGIVNGYVTLMGASDYVNTLFKNKNVSINVELYFDATGHILPDSSSLKTDLELKYKQTADFSARGFMPSTTAYPFVLPNAGTHNENYIFGQCYYKASNGALFPLEVTVMLNKRLPDSRTSYVMTFLWSLNAGLAPETTQATLITSPFTFSYIREDD
With B2, in test [1], the Inhibition of infection in the presence of dimeric knob (JO-1 = 100%) (% (JO-1 = 100%)) stood at 5.3. Also, the Inhibition of attachment in the presence of dimeric knob (JO-1 = 100%) (% (JO-1 = 100%)) in test [2] amounted to 45.

B3: dimeric Ad3 fiber knob mutant N186D (ligand)
chain: MKVSALKEKVSALKEKVSALKEKVSALKEKVSALKEGSGGGSGGGSGGGSNSIALKNNTLWTGPKPEANCIIEYGKQNPDSKLTLILVKNGGIVNGYVTLMGASDYVNTLFKDKNVSINVELYFDATGHILPDSSSLKTDLELKYKQTADFSARGFMPSTTAYPFVLPNAGTHNENYIFGQCYYKASDGALFPLEVTVMLNKRLPDSRTSYVMTFLWSLNAGLAPETTQATLITSPFTFSYIREDD
notes: Self-dimerizing form (JO-1 format)
B3: in test [4], the “Inhibition of infection in the presence of dimeric knob (JO-1 = 100%)” value was 32.7 % (JO-1 = 100%). The “Inhibition of attachment in the presence of dimeric knob (JO-1 = 100%)” value in test [5] was 56.5 % (JO-1 = 100%).

B4: dimeric Ad3 fiber knob mutant V189G (ligand)
chain: MKVSALKEKVSALKEKVSALKEKVSALKEKVSALKEGSGGGSGGGSGGGSNSIALKNNTLWTGPKPEANCIIEYGKQNPDSKLTLILVKNGGIVNGYVTLMGASDYVNTLFKNKNGSINVELYFDATGHILPDSSSLKTDLELKYKQTADFSARGFMPSTTAYPFVLPNAGTHNENYIFGQCYYKASDGALFPLEVTVMLNKRLPDSRTSYVMTFLWSLNAGLAPETTQATLITSPFTFSYIREDD
notes: JO-1 format
On to B4, for which the “Inhibition of infection in the presence of dimeric knob (JO-1 = 100%)” value in test [4] is 54 % (JO-1 = 100%). The “Inhibition of attachment in the presence of dimeric knob (JO-1 = 100%)” value in test [5] was 81 % (JO-1 = 100%).

B5: dimeric Ad3 fiber knob mutant F265L (ligand)
chain: MKVSALKEKVSALKEKVSALKEKVSALKEKVSALKEGSGGGSGGGSGGGSNSIALKNNTLWTGPKPEANCIIEYGKQNPDSKLTLILVKNGGIVNGYVTLMGASDYVNTLFKNKNVSINVELYFDATGHILPDSSSLKTDLELKYKQTADFSARGFMPSTTAYPFVLPNAGTHNENYIFGQCYYKASDGALLPLEVTVMLNKRLPDSRTSYVMTFLWSLNAGLAPETTQATLITSPFTFSYIREDD
notes: JO-1 format
Take B5: the “Inhibition of infection in the presence of dimeric knob (JO-1 = 100%)” value in test [4] was 17.6 % (JO-1 = 100%). Moreover, the “Inhibition of attachment in the presence of dimeric knob (JO-1 = 100%)” value in test [5] was 55.6 % (JO-1 = 100%).

B6: dimeric Ad3 fiber knob mutant D261N, L296R (ligand)
chain: MKVSALKEKVSALKEKVSALKEKVSALKEKVSALKEGSGGGSGGGSGGGSNSIALKNNTLWTGPKPEANCIIEYGKQNPDSKLTLILVKNGGIVNGYVTLMGASDYVNTLFKNKNVSINVELYFDATGHILPDSSSLKTDLELKYKQTADFSARGFMPSTTAYPFVLPNAGTHNENYIFGQCYYKASNGALFPLEVTVMLNKRLPDSRTSYVMTFLWSLNAGRAPETTQATLITSPFTFSYIREDD
notes: JO-1 format; Positions count on the full Ad3 fiber; also called combination of D261N and L296R
B6: the “Inhibition of infection in the presence of dimeric knob (JO-1 = 100%)” value in test [4] was 1.5 % (JO-1 = 100%). Also, the “Inhibition of attachment in the presence of dimeric knob (JO-1 = 100%)” value in test [5] was 20.1 % (JO-1 = 100%). The Western blot Residual DSG2 binding (wtAd3 knob = 100%) in test [6] worked out at 7%.

B7: dimeric Ad3 fiber knob mutant L296R (ligand)
chain: MKVSALKEKVSALKEKVSALKEKVSALKEKVSALKEGSGGGSGGGSGGGSNSIALKNNTLWTGPKPEANCIIEYGKQNPDSKLTLILVKNGGIVNGYVTLMGASDYVNTLFKNKNVSINVELYFDATGHILPDSSSLKTDLELKYKQTADFSARGFMPSTTAYPFVLPNAGTHNENYIFGQCYYKASDGALFPLEVTVMLNKRLPDSRTSYVMTFLWSLNAGRAPETTQATLITSPFTFSYIREDD
notes: JO-1 format
B7: the “Inhibition of infection in the presence of dimeric knob (JO-1 = 100%)” value in test [4] is 5.1 % (JO-1 = 100%). The “Inhibition of attachment in the presence of dimeric knob (JO-1 = 100%)” value in test [5] is 73.7 % (JO-1 = 100%).

B8: dimeric Ad3 fiber knob mutant E299V (ligand)
chain: MKVSALKEKVSALKEKVSALKEKVSALKEKVSALKEGSGGGSGGGSGGGSNSIALKNNTLWTGPKPEANCIIEYGKQNPDSKLTLILVKNGGIVNGYVTLMGASDYVNTLFKNKNVSINVELYFDATGHILPDSSSLKTDLELKYKQTADFSARGFMPSTTAYPFVLPNAGTHNENYIFGQCYYKASDGALFPLEVTVMLNKRLPDSRTSYVMTFLWSLNAGLAPVTTQATLITSPFTFSYIREDD
notes: JO-1 format
As to B8, the “Inhibition of infection in the presence of dimeric knob (JO-1 = 100%)” value in test [4] was 50.7 % (JO-1 = 100%). Besides, the “Inhibition of attachment in the presence of dimeric knob (JO-1 = 100%)” value in test [5] is 97.3 % (JO-1 = 100%).

B9: dimeric Ad3 fiber knob mutant S190P (ligand)
chain: MKVSALKEKVSALKEKVSALKEKVSALKEKVSALKEGSGGGSGGGSGGGSNSIALKNNTLWTGPKPEANCIIEYGKQNPDSKLTLILVKNGGIVNGYVTLMGASDYVNTLFKNKNVPINVELYFDATGHILPDSSSLKTDLELKYKQTADFSARGFMPSTTAYPFVLPNAGTHNENYIFGQCYYKASDGALFPLEVTVMLNKRLPDSRTSYVMTFLWSLNAGLAPETTQATLITSPFTFSYIREDD
notes: JO-1 format; also called 5190P
Consider B9, for which the “Inhibition of infection in the presence of dimeric knob (JO-1 = 100%)” value in test [4] is 30.9 % (JO-1 = 100%). Further, the “Inhibition of attachment in the presence of dimeric knob (JO-1 = 100%)” value in test [5] is 73.4 % (JO-1 = 100%).

B10: Ad3-S4/Kn (ligand, human adenovirus serotype 3, UniProt P04501 77-319, looked up)
chain: SLEENIKVNTPLTKSNHSINLPIGNGLQIEQNKLCSKLGNGLTFDSSNSIALKNNTLWTGPKPEANCIIEYGKQNPDSKLTLILVKNGGIVNGYVTLMGASDYVNTLFKNKNVSINVELYFDATGHILPDSSSLKTDLELKYKQTADFSARGFMPSTTAYPFVLPNAGTHNENYIFGQCYYKASDGALFPLEVTVMLNKRLPDSRTSYVMTFLWSLNAGLAPETTQATLITSPFTFSYIREDD
notes: domain: fiber knob with shaft motifs (S4)
As to B10, the binding result in test [3] was “no binding”.

B11: Ad3-S2/Kn (ligand, human adenovirus serotype 3, UniProt P04501 108-319, looked up)
chain: NKLCSKLGNGLTFDSSNSIALKNNTLWTGPKPEANCIIEYGKQNPDSKLTLILVKNGGIVNGYVTLMGASDYVNTLFKNKNVSINVELYFDATGHILPDSSSLKTDLELKYKQTADFSARGFMPSTTAYPFVLPNAGTHNENYIFGQCYYKASDGALFPLEVTVMLNKRLPDSRTSYVMTFLWSLNAGLAPETTQATLITSPFTFSYIREDD
notes: domain: fiber knob with shaft motifs (S2)
In the case of B11, the binding result in test [3] is reported as “no binding”.

B12: Ad3-S5/Kn (ligand, human adenovirus serotype 3, UniProt P04501 60-319, looked up)
chain: SLQLKVGSGLTVDTTDGSLEENIKVNTPLTKSNHSINLPIGNGLQIEQNKLCSKLGNGLTFDSSNSIALKNNTLWTGPKPEANCIIEYGKQNPDSKLTLILVKNGGIVNGYVTLMGASDYVNTLFKNKNVSINVELYFDATGHILPDSSSLKTDLELKYKQTADFSARGFMPSTTAYPFVLPNAGTHNENYIFGQCYYKASDGALFPLEVTVMLNKRLPDSRTSYVMTFLWSLNAGLAPETTQATLITSPFTFSYIREDD
notes: domain: fiber knob with shaft motifs (S5)
For B12, the binding result in test [3] is listed as “no binding”.

The record behind these values is patent publication US20190092819A1 (published 2019).
